Test results as given in patent US20140378530A1.

Biological target: glutathione-S-transferase (GST)-tagged recombinant RARa ligand binding domain (LBD) (UniProt P10276)
Assay: cell-free TR-FRET coactivator recruitment assay; the concentration varied is that of the retinoid Rald, not of either protein

glutathione-S-transferase (GST)-tagged recombinant RARa ligand binding domain (LBD), sequence (P10276 183-417 limits assumed): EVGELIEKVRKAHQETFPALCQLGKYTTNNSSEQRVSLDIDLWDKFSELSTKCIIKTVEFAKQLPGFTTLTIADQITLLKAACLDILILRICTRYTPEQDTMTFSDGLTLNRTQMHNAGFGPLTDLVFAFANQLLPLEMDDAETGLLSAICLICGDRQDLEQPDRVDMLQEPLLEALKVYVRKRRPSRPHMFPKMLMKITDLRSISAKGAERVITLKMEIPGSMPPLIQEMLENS

EC50 of retinaldehyde (Rald, small-molecule ligand) for recruitment of PGC-1a to RARa: 82 nM
Substance: fluorescein-labeled coactivator peptide (PGC-1a)
